Literature values as cited in publication PMC3791513.

Molecular target: GPR77 (Homo sapiens) (UniProt Q9P296)
Sequence (Q9P296 whole entry): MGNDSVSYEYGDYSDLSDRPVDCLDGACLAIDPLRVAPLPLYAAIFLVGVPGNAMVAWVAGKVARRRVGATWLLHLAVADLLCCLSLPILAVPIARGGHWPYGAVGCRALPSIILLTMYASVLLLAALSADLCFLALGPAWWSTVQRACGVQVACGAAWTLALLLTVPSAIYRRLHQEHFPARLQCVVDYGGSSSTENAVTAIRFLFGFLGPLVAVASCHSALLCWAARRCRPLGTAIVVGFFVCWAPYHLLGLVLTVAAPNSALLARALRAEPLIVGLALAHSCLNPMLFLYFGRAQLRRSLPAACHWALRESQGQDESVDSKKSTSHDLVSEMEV

Sequence of complement anaphylatoxin C5a C5a (P01031 675-754): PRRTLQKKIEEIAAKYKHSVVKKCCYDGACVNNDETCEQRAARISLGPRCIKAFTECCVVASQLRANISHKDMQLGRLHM

complement anaphylatoxin C5a C5a (from UniProt P01031)
Kd: 2.5 nM
